For one molecule, Kd results are on record in paper PMC11110392, “A first-in-class inhibitor of HSP110 to potentiate XPO1-targeted therapy in primary mediastinal B-cell lymphoma and classical Hodgkin lymphoma” (Journal of Experimental & Clinical Cancer Research : CR, 2024).

This assay deals with T1, His-tagged HSP110 (recombinant) (UniProt Q92598 1-858, non-covalent RED-Tris-NTA 2nd generation dye on the His tag).
T1 construct: recombinant HSP110, OriGene TP307102; also called recombinant HSP110; TP307102; source: bought: OriGene (TP307102)
The assay can be described thus: MST; Monolith NT.115; His-tagged HSP110 labelled with RED-Tris-NTA 2nd generation, fixed at 50 nM; STAT6 titrated from 2.39 µM to 0.07 nM. Particulars: both partners purified.

T1 sequence (Q92598 whole entry): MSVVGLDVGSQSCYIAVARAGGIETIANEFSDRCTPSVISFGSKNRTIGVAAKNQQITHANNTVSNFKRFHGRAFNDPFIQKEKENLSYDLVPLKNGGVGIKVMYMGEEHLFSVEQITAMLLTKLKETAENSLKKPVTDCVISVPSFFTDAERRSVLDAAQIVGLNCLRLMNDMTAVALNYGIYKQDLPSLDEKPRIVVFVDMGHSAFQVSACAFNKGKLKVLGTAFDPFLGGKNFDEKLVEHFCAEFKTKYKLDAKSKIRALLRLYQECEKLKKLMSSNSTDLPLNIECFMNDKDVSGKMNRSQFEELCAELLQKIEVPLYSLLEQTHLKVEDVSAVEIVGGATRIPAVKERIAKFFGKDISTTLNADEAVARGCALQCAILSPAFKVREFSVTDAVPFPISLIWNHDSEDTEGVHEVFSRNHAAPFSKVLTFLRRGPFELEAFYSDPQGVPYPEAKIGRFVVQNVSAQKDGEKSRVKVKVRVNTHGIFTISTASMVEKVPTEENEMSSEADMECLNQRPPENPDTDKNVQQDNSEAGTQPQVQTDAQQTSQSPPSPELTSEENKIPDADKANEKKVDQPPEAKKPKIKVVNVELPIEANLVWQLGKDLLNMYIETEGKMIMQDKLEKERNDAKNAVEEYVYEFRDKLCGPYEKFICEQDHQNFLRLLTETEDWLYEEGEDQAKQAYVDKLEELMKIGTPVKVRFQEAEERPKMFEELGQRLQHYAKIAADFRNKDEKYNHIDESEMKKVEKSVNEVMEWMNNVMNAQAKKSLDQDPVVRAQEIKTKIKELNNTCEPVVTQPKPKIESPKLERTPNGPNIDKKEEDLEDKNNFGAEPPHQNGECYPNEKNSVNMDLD

B1: STAT6 (recombinant) (natural protein, UniProt P42226 1-847, looked up)
chain: MSLWGLVSKMPPEKVQRLYVDFPQHLRHLLGDWLESQPWEFLVGSDAFCCNLASALLSDTVQHLQASVGEQGEGSTILQHISTLESIYQRDPLKLVATFRQILQGEKKAVMEQFRHLPMPFHWKQEELKFKTGLRRLQHRVGEIHLLREALQKGAEAGQVSLHSLIETPANGTGPSEALAMLLQETTGELEAAKALVLKRIQIWKRQQQLAGNGAPFEESLAPLQERCESLVDIYSQLQQEVGAAGGELEPKTRASLTGRLDEVLRTLVTSCFLVEKQPPQVLKTQTKFQAGVRFLLGLRFLGAPAKPPLVRADMVTEKQARELSVPQGPGAGAESTGEIINNTVPLENSIPGNCCSALFKNLLLKKIKRCERKGTESVTEEKCAVLFSASFTLGPGKLPIQLQALSLPLVVIVHGNQDNNAKATILWDNAFSEMDRVPFVVAERVPWEKMCETLNLKFMAEVGTNRGLLPEHFLFLAQKIFNDNSLSMEAFQHRSVSWSQFNKEILLGRGFTFWQWFDGVLDLTKRCLRSYWSDRLIIGFISKQYVTSLLLNEPDGTFLLRFSDSEIGGITIAHVIRGQDGSPQIENIQPFSAKDLSIRSLGDRIRDLAQLKNLYPKKPKDEAFRSHYKPEQMGKDGRGYVPATIKMTVERDQPLPTPELQMPTMVPSYDLGMAPDSSMSMQLGPDMVPQVYPPHSHSIPPYQGLSPEESVNVLSAFQEPHLQMPPSLGQMSLPFDQPHPQGLLPCQPQEHAVSSPDPLLCSDVTMVEDSCLSQPVTAFPQGTWIGEDIFPPLLPPTEQDLTKLLLEGQGESGGGSLGAQPLLQPSHYGQSGISMSHMDLRANPSW
notes: recombinant STAT6, Abcam ab125625; also called recombinant STAT6; ab125625; source: bought: Abcam (ab125625)
Turning to B1, the Kd (as a rule, the concentration at which binding is half-saturated) came to 26.7 ± 12.3 nM.
